Assay results taken from patent US12162934B2, “Gremlin-1 antagonist for the prevention and treatment of cancer” (UCB BIOPHARMA SRL, priority 2018, dated 2024).

Assays:
[1] = biological target: T1, BMP-2-Gremlin-1 complexes (Homo sapiens, UniProt O60565); test: SMAD phosphorylation assay: displacement of BMP-2 from Gremlin 1-BMP complexes; format: cell-based; details: for Displacement of BMP-2 from Gremlin 1-BMP complexes (SMAD phosphorylation): BMP 2 50 ng/ml
T1 sequence (O60565 25-184): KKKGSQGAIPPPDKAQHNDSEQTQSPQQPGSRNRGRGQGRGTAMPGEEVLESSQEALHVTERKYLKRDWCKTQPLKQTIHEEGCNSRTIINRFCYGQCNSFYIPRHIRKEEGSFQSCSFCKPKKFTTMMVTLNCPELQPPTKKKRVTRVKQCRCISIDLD
Method: Experiments were again performed using lung fibroblasts from idiopathic pulmonary fibrosis patients. rhBMP-2 or rhBMP 4/7 were preincubated with rhGremlin-1 for 1 hour at room temperature. The BMP-2- or BMP4/7-Gremlin-1 complexes were incubated with different concentrations of the anti-Gremlin-1 antibodies overnight at 4° C. Antibody concentrations represent the final concentration on the plate.

Apc^Min mice = test: Apc^Min mouse polyposis model (survival); format: in vivo; details: for median survival: vehicle 192 days
5TGM1.Bmx1 MM PCs = test: 5TGM1/KaLwRij mouse model of multiple myeloma, antibody prior to tumour cell inoculation; format: in vivo
Method: Targeting Grem1 prior to tumour cell inoculation in an immunocompetent murine model of systemic MM: C57BL/KaLwRij mice (6-8-week-old) were administered two doses of 30 mg/kg Grem1-neutralising antibody Ab7326 or IgG control Ab101.4 (UCB-Pharma, UK) by subcutaneous (s.c.) injection three days and one day prior to tumour inoculation. At Day 0, mice were inoculated with 5×10^5 5TGM1.Bmx1 cells via tail vein injection. Mice continued to receive either 30 mg/kg Grem1-neutralising antibody Ab7326 or IgG control Ab101.4 (UCB-Pharma, UK) by s.c. injection every 3 days for the duration of the 4-week model. Tumour burden was monitored weekly by BLI as previously described. At the end of the experiment, blood was collected by tail bleed, centrifuged at 2100 g for 10 min and serum collected. Serum paraprotein levels were analysed using the Hydragel 30 β1β2 kit (Sebia Electrophoresis, Georgia, USA) according to the manufacturer's instructions. The band corresponding to paraprotein was quantitated relative to serum albumin levels. (SAHMRI Animal Ethics SAM165)

rhGrem1 = biological target: T2, rhGrem1 (Homo sapiens, UniProt O60565); test: Western blot of Smad1/5/9 phosphorylation in murine 4T1 breast cancer cells; format: cell-based, mouse; details: 10 ng/ml BMP2, 100 ng/ml rhGrem1 pre-incubated with antibody; vs isotype control
T2 sequence (O60565 25-184): T1 sequence (O60565 25-184)
Method: Murine 4T1 BrCa cells were seeded into 6-well plates and cultured until 80% confluent. Cells were starved in serum-free medium overnight, and then stimulated with indicated treatments for 2 hrs. Cell lysates were prepared and equivalent amounts of protein (50 μg) were separated on 10% sodium dodecyl sulphate-polyacrylamide gel electrophoresis (SDS-PAGE) gels and transferred to nitrocellulose membranes. Immunoblotting was performed with phospho-Smad1/5/9 antibodies (cell signalling technologies, 1:1000 dilution). Equal loading of protein samples was confirmed by blotting membranes with antibodies against β-actin (Sigma Aldrich, 1:2500 dilution). Proteins were visualised using the Odyssey Infrared Imaging System (LI-COR Bioscience, Lincoln, NE, USA).
As Grem1 is a known BMP-2/4/7 antagonist, we assessed the ability of UCB antibody Ab7326 to inhibit Grem1-induced inhibition of Smad1/5/9 phosphorylation via western blot analysis. Murine 4T1 breast cancer cells exposed to 10 ng/ml BMP2 which led to Smad1/5/9 phosphorylation. Co-incubation with 100 ng/ml rhGrem1 inhibited this BMP2-mediated Smad1/5/9 phosphorylation.

Q: Which results are given for “Ab7326: allosteric inhibitory anti-Gremlin-1 antibody from a naïve human library; CDRs SEQ ID NOS 4 to 9; mouse IgG1 in mouse experiments”?
A: Displacement of BMP-2 from Gremlin 1-BMP complexes (SMAD phosphorylation) ([1]; antibody 0.63 μg/ml): 97.0%; Displacement of BMP-2 from Gremlin 1-BMP complexes (SMAD phosphorylation) ([1]; antibody 1.27 μg/ml): 102.8%; Displacement of BMP-2 from Gremlin 1-BMP complexes (SMAD phosphorylation) ([1]; antibody 2.55 μg/ml): 103.2%; Displacement of BMP-2 from Gremlin 1-BMP complexes (SMAD phosphorylation) ([1]; antibody 5.1 μg/ml): 100.3%; Displacement of BMP-2 from Gremlin 1-BMP complexes (SMAD phosphorylation) ([1]; antibody 10.2 μg/ml): 103.8%; Displacement of BMP-2 from Gremlin 1-BMP complexes (SMAD phosphorylation) ([1]; antibody 20.3 μg/ml): 99.4%; Displacement of BMP-2 from Gremlin 1-BMP complexes (SMAD phosphorylation) ([1]; antibody 40.6 μg/ml): 101.5%; Displacement of BMP-2 from Gremlin 1-BMP complexes (SMAD phosphorylation) ([1]; antibody 81.3 μg/ml): 103.7%; Displacement of already complexed BMP from Gremlin 1-BMP complexes ([1]; BMP-2 or BMP4/7, at much lower concentrations than comparison antibody 2484): can displace already complexed BMP-2 or BMP4/7; median survival (Apc^Min mice; early stage treatment (42 days), 30 mg/kg weekly): 424.5 days; median survival (Apc^Min mice; established polyposis, 30 mg/kg weekly from 4 months): 264.5 days; median survival (Apc^Min mice; late-stage treatment (120 days), 30 mg/kg weekly): 261 days; Survival / polyp development (Apc^Min mice; long term treatment initiated at 6 weeks of age): prolonged survival; Reduction in tumour burden (BLI) (5TGM1.Bmx1 MM PCs; 30 mg/kg s.c. from three days prior to inoculation, 4-weeks post-tumour cell inoculation, vs IgG control): approximately 75%; Tumour burden in the hindlimb bones (BLI) (5TGM1.Bmx1 MM PCs; antibody prior to tumour cell inoculation, vs IgG control): significant reduction; Additional reduction in overall tumour burden compared with treatment following tumour cell inoculation (5TGM1.Bmx1 MM PCs; end of the study): 25%; Splenic tumour burden (5TGM1.Bmx1 MM PCs; pre-tumour cell inoculation group): downwards trend; M-spike intensity relative to serum albumin (SPEP) (5TGM1.Bmx1 MM PCs; week 4, vs IgG control): significantly lower; Smad1/5/9 phosphorylation in 4T1 cells (rhGrem1): partially restored
